Measurements: the DeepSol protein solubility set

Assay: soluble on expression in E. coli; label from the status in PepcDB or PDB records

Row | Sequence | soluble on expression in E. coli
1 | MGSDKIHHHHHHYLPDDEPKKLIVNAMMQTENNDNRIYLHYTGWTATTPVTDGIIHLYINGKLSETITAEDDYYPVKSIFRTGDKVKIEASSENGKYKAKAETRISAPLQIINVDTTYISLRDYNSWVGGKPVYDNYLRLNIQLKQPDIEAENTYYRLEIKQIFYSHKWHDGRDTLSIDTTYNYNYIYDTALTDGKPGHAIDEGFELIQKWNNYFGLFKSCYFKNREYNMTIDLKEDINYIHIDSQKAERYISIRFYSISESEHRYLYAMSSALDFDAENFIYAVPLIPNNIKGGIGIFSIANQVKYKLKEENCQDRY | not soluble
2 | GMDRTLTHQPQEYAVSVSVGEVKLKGNLVIPNGATGIVLFAHGSGSSRYSPRNRYVAEVLQQAGLATLLIDLLTQEEEEIDLRTRHLRFDIGLLASRLVGATDWLTHNPDTQHLKVGYFGASTGGGAALVAAAERPETVQAVVSRGGRPDLAPSALPHVKAPTLLIVGGYDLPVIAMNEDALEQLQTSKRLVIIPRASHLFEEPGALTAVAQLASEWFMHYLR | soluble
3 | MSPFGKIAIVGSGLVGSSWATIFASSGYEVQMYDISEKQLQVALENVEKNLRKLDEHGLQRGNLSADEALLRVSTTTSLNEVMKNAIYMQESALEDLNFRIQFYKVIDEIADPTTILASSTSTIPASKFTDGLINKERCLIVHPVNPPLFLPLTELVPAPWTSQDTVDRAAEIMRSVKQEPVKLKKEVLGFVVNRLQFALLAETWRLVADGVIGVNDVDAVMSAGLGPRYAFNGTCETVHLNAFGVRDYFKRYAAGITAVLKDMGPIPDFTDEKVINKLEEELEPKMSTLNIRKHQAEREEKLVEIAKLKKDLNL | not soluble
4 | MSLSAQHAAHAQADTITALGAYLTTLAESHGQDEVAQAMCEIATQTLPRSCGELWQLSLDREGWYHGGGWQTGTVLPPQGYTLRATLPRGPTDELRLPLQAHGLTVGEVRAPYEGLESEQEQQLLQTLSTAAAISLSGHLLQRRVRHRNVRDPLTGLFNRRYLEDTLERELHRARRVNAGLVLIRLEVDTLDAFAAEHGSETADRLMQAMADAVHHAFRGSDVCCRAGDDGFGILLPDASLDNGAMRAEAVREELAELRIHQRGRPLGPVTVSAGVAAYPDHSSNRDLLLDAAESAVTRARDEGGDVLRIAELVSPPNPNQGHHHHHH | soluble
5 | MATVHKVGDSTGWTTLVPYDYAKWASSNKFHVGDSLLFNYNNKFHNVLQVDQEQFKSCNSSSPAASYTSGADSIPLKRPGTFYFLCGIPGHCQLGQKVEIKVDPGSSSA | soluble
6 | MGSDKIHHHHHHSNINPSNGEGRDPLENFNRAMWKINYEVIDPHIFKPVAKGWRDYVPAPIKRSLVNIANNLDEPASFVNRLIEGDGQKAMRHFTRFWINSTFGLAGLIDWASQIKELKLENGNREFGDTLGHYGVPAGSYIMAPGYGPITPRQAVGKVVDSVYPMLSMLATPWMLTKFFVQSIDTRAQFINQEALLTNSADPYISFREAYFQNLRFKVKDGDVSDIQEQLSQEELDQID | not soluble
7 | MGHHHHHHGGHMSLLRFLEVVSEHIKNLRNHIDLETVGEMIKLIDSARSIFVIGAGRSGYIAKAFAMRLMHLGYTVYVVGETVTPRITDQDVLVGISGSGETTSVVNISKKAKDIGSKLVAVTGKRDSSLAKMADVVMVVKGKMKQERDEILSQLAPLGTMFELTAMIFLDALVAEIMMQKHLTEKDLEARHAVLEEGGS | soluble
8 | MGSDKIHHHHHHMTKKITTHLESGLFKGKPRQKTVQHRNATTTPEMRQFIQQSDYSVSQLSKILNISEATVRKWRKRDSIDNTPNTPHKLNTTLSPMEEYVMLGLRYQLKMPLDRLLKVTQEFINPNVSRSGLARCLKRFGVSKLDEFDSPFVPEKFFNQLPITQGADIQTYTVNPKTLADTLSLPSPDPDNVVQVVSLSIPPQLTKQQAYSVLLGVDFKSDWVYLDIYQDSHTQASNRYITHVLKHGPFHLRKLLVRNYHTFLARFPGASQPAAVSTSTIDAAGSQHQITEPQLSNGDSYEPIQ | not soluble
9 | MTESTSLDELFKDRYSQNDERYKKMSETGFEPVIVVHPWEPRRNNNYRNRGNFGGGRGGGYQHRDNSNRGGWVPRGGGQRGGYRGGWQDRGGHRGGGGWQDRGGQRQPYRGGDRRRQYND | soluble
